Laboratory results from PMC12170873, “The Spc105/Kre28 complex promotes mitotic error correction by outer kinetochore recruitment of Ipl1/Sli15” (The EMBO Journal, 2025).
Changes are numbered by the printed parent chain. Names and notes keep the numbering of the source.

Experiments:
Conditions in all cases: both partners purified
[1] = target: T1, Spc105-Flag/Kre28 complex (S. cerevisiae, UniProt P53148 1-917; Q04431 1-385); experiment: pull-down; KMN or its subcomplexes from Sf9 cells immobilised on anti-Flag M2 beads; 100 µl of 2 µM Ipl1/Sli15 added to ~20 µl beads; 4 °C, 6 h; 25 mM HEPES pH 7.4, 200 mM NaCl, 1 mM MgCl2, 2.5% glycerol, 0.01% Tween-20; eluted with 3xFlag peptide; Coomassie and anti-His blot; also done with prolonged incubation times (Fig. EV3A)
T1 construct: Spc105 (Knl1 homologue), S. cerevisiae; Kre28 (Zwint homologue), S. cerevisiae, wild type; the asterisk is not explained; A potential proteolysis product of full-length Spc105 is marked in the gels; also called Spc105/Kre28; K subcomplex; source: Sf9 insect cells (baculovirus pFAP10), purified on anti-Flag M2 beads; also as part of the co-expressed KMN network (KT1-5 and KT1-6); not shown: Flag, …
T1 sequence (looked up) 1: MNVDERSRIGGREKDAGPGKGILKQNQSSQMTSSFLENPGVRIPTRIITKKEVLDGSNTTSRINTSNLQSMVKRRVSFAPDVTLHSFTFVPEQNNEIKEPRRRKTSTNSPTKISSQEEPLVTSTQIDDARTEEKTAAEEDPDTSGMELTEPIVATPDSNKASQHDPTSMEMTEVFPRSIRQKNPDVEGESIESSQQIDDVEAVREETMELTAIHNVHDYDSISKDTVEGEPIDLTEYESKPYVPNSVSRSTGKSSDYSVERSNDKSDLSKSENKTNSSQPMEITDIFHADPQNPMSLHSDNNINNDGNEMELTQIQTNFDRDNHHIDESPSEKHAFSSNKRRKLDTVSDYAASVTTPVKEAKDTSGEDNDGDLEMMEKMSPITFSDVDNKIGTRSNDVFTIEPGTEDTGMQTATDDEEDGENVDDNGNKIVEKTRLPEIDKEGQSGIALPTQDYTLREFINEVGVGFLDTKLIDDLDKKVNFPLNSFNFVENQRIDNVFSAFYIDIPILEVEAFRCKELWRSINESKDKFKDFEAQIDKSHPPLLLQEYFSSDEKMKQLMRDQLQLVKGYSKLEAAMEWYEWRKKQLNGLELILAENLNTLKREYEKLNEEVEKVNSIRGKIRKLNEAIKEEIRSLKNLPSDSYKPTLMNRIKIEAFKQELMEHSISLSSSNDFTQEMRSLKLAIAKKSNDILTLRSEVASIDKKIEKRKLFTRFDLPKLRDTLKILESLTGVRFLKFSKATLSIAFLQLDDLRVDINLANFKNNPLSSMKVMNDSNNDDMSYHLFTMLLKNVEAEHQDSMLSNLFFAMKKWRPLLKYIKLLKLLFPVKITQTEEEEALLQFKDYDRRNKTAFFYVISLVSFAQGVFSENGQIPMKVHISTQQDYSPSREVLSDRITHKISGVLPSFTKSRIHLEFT
T1 sequence (looked up) 2: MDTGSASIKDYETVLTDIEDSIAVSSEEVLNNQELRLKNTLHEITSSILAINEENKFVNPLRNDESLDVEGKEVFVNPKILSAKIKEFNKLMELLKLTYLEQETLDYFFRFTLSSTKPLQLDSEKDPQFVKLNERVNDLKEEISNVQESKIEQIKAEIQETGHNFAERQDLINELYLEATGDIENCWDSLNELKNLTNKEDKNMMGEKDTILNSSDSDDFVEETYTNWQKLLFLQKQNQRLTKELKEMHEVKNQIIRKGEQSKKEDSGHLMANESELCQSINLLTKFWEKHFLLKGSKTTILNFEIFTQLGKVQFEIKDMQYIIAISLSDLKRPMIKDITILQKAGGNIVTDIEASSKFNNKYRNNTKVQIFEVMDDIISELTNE

[2] = target: T2, recombinant KMN network containing Kre28^ΔZwint (S. cerevisiae, UniProt P53148 1-917; Q04431 1-385; P39731 1-289; P40568 1-576; P47149 1-201; Q12143 …, ΔZwint (Zwint helix, residues 77–113)); experiment: as above
T2 construct: Spc105 (Knl1 homologue), S. cerevisiae; Mtw1, S. cerevisiae; Dsn1, S. cerevisiae; Nnf1, S. cerevisiae; Nsl1, S. cerevisiae; Ndc80, S. cerevisiae; Nuf2, S. cerevisiae; Spc24, S. cerevisiae; Spc25, S. cerevisiae; also called Kre28^ΔZwint KMN network; mutant KMN network; source: Sf9 insect cells, baculoviruses KT1-5 and KT1-6 mut, purified via Spc105-Flag on anti-Flag M2 beads; not shown: Flag, …

[3] = target: T3, recombinant budding yeast KMN network (Spc105-Flag/Kre28^WT, Mtw1 complex, Ndc80 complex) (S. cerevisiae, UniProt P53148 1-917; Q04431 1-385; P39731 1-289; P40568 1-576; P47149 1-201; Q12143 …); experiment: cross-linking; recombinant KMN and Ipl1/Sli15 mixed at equimolar amounts, BS3 (d0/d12), 35 °C, 30 min; cross-links identified by mass spectrometry (xQuest)
T3 construct: Spc105 (Knl1 homologue), S. cerevisiae; Kre28 (Zwint homologue), S. cerevisiae, wild type; Mtw1, S. cerevisiae; Dsn1, S. cerevisiae; Nnf1, S. cerevisiae; Nsl1, S. cerevisiae; Ndc80, S. cerevisiae; Nuf2, S. cerevisiae; Spc24, S. cerevisiae; Spc25, S. cerevisiae; also called wild-type Kre28 KMN network; not shown: Flag, C-terminal, kept; copies: + + + + + + + + +

B1: Ipl1/6xHis-Sli15 complex, dephosphorylated by λ phosphatase (complex, S. cerevisiae)
chain 1: MQRNSLVNIKLNANSPSKKTTTRPNTSRINKPWRISHSPQQRNPNSKIPSPVREKLNRLPVNNKKFLDMESSKIPSPIRKATSSKMIHENKKLPKFKSLSLDDFELGKKLGKGKFGKVYCVRHRSTGYICALKVMEKEEIIKYNLQKQFRREVEIQTSLNHPNLTKSYGYFHDEKRVYLLMEYLVNGEMYKLLRLHGPFNDILASDYIYQIANALDYMHKKNIIHRDIKPENILIGFNNVIKLTDFGWSIINPPENRRKTVCGTIDYLSPEMVESREYDHTIDAWALGVLAFELLTGAPPFEEEMKDTTYKRIAALDIKMPSNISQDAQDLILKLLKYDPKDRMRLGDVKMHPWILRNKPFWENKRL
chain 2: MDWAIKAARKKTQRKPGSTRSIIETLDDLNNLTTDAHSEINQRLYESSEWLRNNVYMNTLKYEDKKMEESLISPENTHNKMDVEFPKMKGEYELSNSQNDAAKDVTKTPRNGLHNDKSITPKSLRRKEVTEGMNRFSIHDTNKSPVEPLNSVKVDANESEKSSPWSPYKVEKVLRESSKTSESPINTKRFDNQTWAAKEEMENEPILQALKKAESVKVKPPPNSGIARSQRRSNMFVPLPNKDPLIIQHIPPTKSSGSIPKVRTVKESPIAFKKKSTINSPAIRAVENSDTAGSTKASSVFDRLSSIPTKSFENKISRGNVGHKYSSSSIDLTGSPMKKVSQKFKSINSTDTDMQEALRDIFSVKNKITKNNSPKGKNSRKSSIPRFDKTSLKLTTHKKLAIIAEQKKKSKHSSDVHKTGSRPHSISPTKISVDSSSPSKEVKNYYQSPVRGYLRPTKASISPNKNKNLTTSQTPHRLKIKEKTLRKLSPNIADISKPESRKSKNYRLTNLQLLPPAEAERDDLKKKFDKRLSGIMRSQQEHHRRKQEKQKRMSHLEQDLKKQTSFSNDYKDIRLKESLAPFDNHVRDTINKNTAFSTDNILATINTVDHREIIGNVTPKIASVNDSLPEINTDSEDEASVTLAAWAKSPYLQEQLIRQQDINPQTIFGPIPPLHTDEIFPNPRLNRLKPRQIVPKRS
modifications: dephosphorylated by λ phosphatase | dephosphorylated by λ phosphatase
notes: Ipl1 (Aurora B homologue), S. cerevisiae; Sli15 (INCENP homologue), S. cerevisiae; also called Lambda phosphatase-treated Ipl1/Sli15; source: E. coli BL21, purified (HisTrap, SEC), then treated with λ-Protein Phosphatase (NEB) at 30 °C for 30 min
[1]
  binding result: binds

B2: Ipl1/6xHis-Sli15 complex (wild type, untreated) (complex, S. cerevisiae)
chain 1: B1 chain 1
chain 2: B1 chain 2
notes: Ipl1 (Aurora B homologue), S. cerevisiae; Sli15 (INCENP homologue), S. cerevisiae; the full-length form was preferentially pulled down; also called Ipl1/Sli15; Ipl1/Sli15 complex; source: E. coli BL21, purified (HisTrap, SEC on Superdex 200)
[1]
  binding result: binds
[2]
  binding result: binds
[3]
  binding result: binds

B3: Ipl1/6xHis-Sli15^4E complex (complex, S. cerevisiae)
chain 1: B1 chain 1
chain 2: B1 chain 2 with R231E, R232E, L239E, K242E
notes: Ipl1 (Aurora B homologue), S. cerevisiae; Sli15 (INCENP homologue), S. cerevisiae, 4E mutant (plasmid pAD146 in pETDuett); also called Sli15^4E mutant; Sli15 R231E R232E L239E K242E; source: E. coli BL21, purified (HisTrap, SEC on Superdex 200)
[1]
  binding result: binds
